# Assay results: publication PMC8254717, “Characterization of the DdrD protein from the extremely radioresistant bacterium Deinococcus radiodurans”
# T1: DdrD (Deinococcus radiodurans R1 (ATCC 13939), UniProt Q9RXI7 1-198)
# T1 sequence: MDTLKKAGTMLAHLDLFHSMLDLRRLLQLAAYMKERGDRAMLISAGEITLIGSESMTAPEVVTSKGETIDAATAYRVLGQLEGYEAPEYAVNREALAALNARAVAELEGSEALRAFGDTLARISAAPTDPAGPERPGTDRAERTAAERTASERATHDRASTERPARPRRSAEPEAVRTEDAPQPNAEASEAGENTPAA
# B1: oligo 1 (67-mer ssDNA) (ssDNA)
# DNA: CTGTTTAAGAAATTCACCTCGAAAGCAAGCTGATAAACCGATACAATTAAAGGCTCCTTTTGGAGCC
# B2: oligo 2 (67-mer dsDNA) (dsDNA)
# DNA 1: B1 DNA
# DNA 2: GGCTCCAAAAGGAGCCTTTAATTGTATCGGTTTATCAGCTTGCTTTCGAGGTGAATTTCTTAAACAG
# What was measured:
# [1] = target: T1, DdrD; assay: EMSA; 5 mM Mg2+; DdrD up to 8 uM; not completely shifted at highest concentration; proteinase K releases DNA; EMSA: 40 mM Tris-HCl pH 7.8, 5 mM MgCl2, 1.5 mM DTT, 50 mM NaCl, 2.5% glycerol, 3.3 nM DNA, 15 min at 4 C; 6% native PAGE in 0.25X TBE with 10% glycerol; details: protein: recombinant; tags: none (untagged; native stop codon in reverse primer, pET21a NdeI/EcoRI); label: 5' Cy5
# [2] = target: T1, DdrD; assay: EMSA; 5 mM Mg2+; same DdrD concentrations as oligo 1; EMSA: 40 mM Tris-HCl pH 7.8, 5 mM MgCl2, 1.5 mM DTT, 50 mM NaCl, 2.5% glycerol, 3.3 nM DNA, 15 min at 4 C; 6% native PAGE in 0.25X TBE with 10% glycerol; details: protein: recombinant; tags: none (untagged; native stop codon in reverse primer, pET21a NdeI/EcoRI); label: 5' Cy5 on strand 1; blunt
Binder,binding result [1],binding result [2]
B1,binds,–
B2,–,no binding
